Data on four substances can be found in patent US20230372399A1.

Read-outs that look alike come from different tables or passages of the source.

Holding throughout (assay): cell-based or functional assay
Test [1] has as its target TGFβ1 (R&D systems) (UniProt P01137).
The target is the same in test [2]. This is another data set of the same source.
Test [3] addresses IL-2Rαβγ (on CTLL-2 cells).
Test [4] concerns the target IL-2Rβ and common γ chain (on 32Dβ cells).
The target is the same in test [5]. This is another data set of the same source.
Test [6] shares this target. The source holds these as a separate data set.
A further test concerns the target IL-21R (on B9 cells).

Chain of TGFβ1 (R&D systems) (P01137 279-390 limits assumed): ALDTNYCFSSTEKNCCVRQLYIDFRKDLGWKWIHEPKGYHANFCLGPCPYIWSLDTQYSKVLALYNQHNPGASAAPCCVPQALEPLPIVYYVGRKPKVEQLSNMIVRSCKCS
Chain of TGFR-Fc (R&D Systems) (P37173 24-159): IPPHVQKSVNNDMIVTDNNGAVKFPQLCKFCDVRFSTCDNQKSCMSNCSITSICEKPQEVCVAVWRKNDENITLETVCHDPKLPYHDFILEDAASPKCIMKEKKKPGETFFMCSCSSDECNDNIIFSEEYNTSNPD

With “TGFR-Fc (R&D Systems) (from UniProt P37173 24-159) (Fc fusion)”, the IC50, inhibition of TGFβ1 activity, HEK-Blue TGFβ reporter cells with TGFβ1 (R&D systems) [1] was determined as 0.461 nM; with TGFβ1 (R&D systems) [2], 0.559 nM.
“recombinant IL-2 (from UniProt P60568 21-153) (ligand)”: the EC50, CTLL-2 cell proliferation (WST-1) in test [3] came to 0.548 nM.
In the case of “recombinant IL-15 (from UniProt P40933 49-162) (ligand)”, the figures for the EC50, 32Dβ cell proliferation (WST-1) in test [4], in test [5] and in test [6] were 0.0016 nM, 0.0166 nM and 0.0106 nM, respectively. In test [3], this substance displayed an EC50, CTLL2 cell proliferation (PrestoBlue) of 0.00495 nM. In test [3], this substance yielded an EC50, CTLL2 cell proliferation (WST-1) of 0.00622 nM.
In the test with IL-21R (on B9 cells), “recombinant IL-21 (from UniProt Q9HBE4 32-162) (ligand)” came in with an EC50, B9 cell proliferation (WST-1) of 72.5 nM.
